Laboratory results reported in patent US20250388893A1 (HUAZHONG AGRICULTURAL UNIVERSITY, published 2025).

Target: T1, GAL4 DNA binding domain (UniProt P04386 1-147)
T1 construct: Residues read through from the cloning site are not described; also called BD
Assay: yeast two-hybrid, growth on SD/-Trp/-Leu/-Ade/-His; empty vector

T1 sequence (P04386 1-147 limits assumed): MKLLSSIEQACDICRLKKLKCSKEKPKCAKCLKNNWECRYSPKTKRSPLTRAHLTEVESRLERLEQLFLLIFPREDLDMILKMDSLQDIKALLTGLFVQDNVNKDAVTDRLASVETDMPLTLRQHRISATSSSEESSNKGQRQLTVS

B1: GAL4 activation domain (other, UniProt P04386 768-881, looked up)
chain: ANFNQSGNIADSSLSFTFTNSSNGPNLITTQTNSQALSQPIASSNVHDNFMNNEITASKIDDGNNSKPLSPGWTDQTAYNAFGITTGMFNTTTMDDVYNYLFDDEDTPPNPKKE
notes: Residues read through from the cloning site are not described; also called AD
Does B1 bind?
Result: no binding
